This is an account of results in US20220251157A1 (MAYO FOUNDATION FOR MEDICAL EDUCATION AND RESEARCH, published 2022).

Assay [1] concerns the target T1, 12p4 (disulfide 1-9; also: displayed on phage).
T1 construct: one clone only
T1 peptide: CARNSTPPC
Description: phage display panning (Ph.D.-C7C) on immobilized antibody, bound phage eluted; 1x clone. From the text: (§1) A phage display system (Ph.D.-C7C Peptide Library Kit, New England Biolabs) was used to select 7-mer peptides in a cysteine loop for either hIgM12 or hIgM22. Briefly, a random peptide bacteriophage library was panned against immobilized antibody. Unbound bacteriophage was washed away, and bound bacteriophage was eluted, regrown and re-panned against the antibody. Multiple (three to seven) rounds of panning led to development of a peptide consensus sequence for each antibody. Two similar consensus sequences were identified for hIgM22, while one consensus sequence was identified for hIgM12 (Table 1).

The target of assay [2] is T2, 12p9a (disulfide 1-9; also: displayed on phage).
T2 peptide: CHQTEKLTC
The experiment in a line: phage display panning (Ph.D.-C7C) on immobilized antibody, bound phage eluted; 11x clones.
Text: as §1

Positions of bridges follow the written chain, without caps; N, C: chain ends. No end group written: not given here.

B1: B7-DC XAb (antibody)
light: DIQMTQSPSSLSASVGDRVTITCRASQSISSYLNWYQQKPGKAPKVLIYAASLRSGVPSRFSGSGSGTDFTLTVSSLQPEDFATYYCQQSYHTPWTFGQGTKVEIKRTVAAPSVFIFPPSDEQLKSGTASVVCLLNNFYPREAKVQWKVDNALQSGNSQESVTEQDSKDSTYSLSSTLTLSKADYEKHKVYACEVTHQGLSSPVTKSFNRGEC
heavy: QVQLQESGPGLLKPSETLSLTCTVSGGSVSLYYWSWIRQSPGKEPEWIGYIYSSGSTDYNPSLRSRVTISLDTSNNRFSLNLRSVTAADTAVYWCARSASIRGWFDPWGQGTLVTVSSGSASAPTLFPLVSCENSPSDTSSVAVGCLAQDFLPDSITFSWKYKNNSDISSTRGFPSVLRGGKYAATSQVLLPSKDVMQGTDEHVVCKVQHPNGNKEKNVPLPVIAELPPKVSVFVPPRDGFFGNPRKSKLICQATGFSPRQIQVSWLREGKQVGSGVTTDQVQAEAKESGPTTYKVTSTLTIKESDWLSQSMFTCRVDHRGLTFQQNASSMCVPDQDTAIRVFAIPPSFASIFLTKSTKLTCLVTDLTTYDSVTISWTRQNGEAVKTHTNISESHPNATFSAVGEASICEDDWNSGERFTCTVTHTDLPSPLKQTISRPKGVALHRPDVYLLPPAREQLNLRESATITCLVTGFSPADVFVQWMQRGQPLSPEKYVTSAPMPEPQAPGRYFAHSILTVSEEEWNTGETYTCVVAHEALPNRVTERTVDKSTGKPTLYNVSLVMSDTAGTCY
notes: Human monoclonal IgM from a Waldenstrom's macroglobulinemia patient; J chain not described; Used at 10 ug/ml; also called hIgM12; sHIgM12
For the molecule B1, the binding result in assay [1] and in assay [2] was “binds” throughout.
